Test results from patent US20030017170A1 (BURNHAM INSTITUTE, published 2003).
Positions of bridges follow the written chain, without caps; N, C: chain ends. No end group written: not given here.

Legend:
E-selectin:IgG chimera [1] = molecular target: E-selectin:IgG chimera (UniProt P16581); test: competition ELISA: inhibition of sLe^x-PAA-biotin binding to coated E-selectin:IgG
E-selectin:IgG chimera [2] = molecular target: E-selectin:IgG chimera (UniProt P16581 22-301); test: as above
E-selectin:IgG chimera (UniProt P16581 22-301), sequence (P16581 22-301, change not shown): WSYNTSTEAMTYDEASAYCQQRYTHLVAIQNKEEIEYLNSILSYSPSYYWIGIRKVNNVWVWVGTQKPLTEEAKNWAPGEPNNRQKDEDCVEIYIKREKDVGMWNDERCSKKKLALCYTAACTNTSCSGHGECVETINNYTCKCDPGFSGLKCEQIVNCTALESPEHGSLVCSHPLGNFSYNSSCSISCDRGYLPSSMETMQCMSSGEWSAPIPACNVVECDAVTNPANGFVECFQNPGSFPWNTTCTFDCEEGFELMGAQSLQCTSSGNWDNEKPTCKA

E-selectin:IgG chimera (UniProt P16581), sequence (P16581 22-301, change not shown): as above

Row | IC50 (E-selectin:IgG chimera [1]) [µM] | IC50 (E-selectin:IgG chimera [2]) [µM] | Binder
1 | 10 | – | IELLQAR (also: eight copies on branched MAPS core) [IELLQAR (SEQ ID NO:7) multivalent (Fmoc eight branch) peptide]
2 | – | 100 | CIELLQARC (disulfide 1-9 (inferred), Synthetic peptide cyclised by a disulfide bond; also called cyclic heptapeptide) [synthetic cyclic CIELLQARC (SEQ ID NO:13) peptide]
3 | 200 | – | IELLQAR [synthetic linear IELLQAR (SEQ ID NO:7) peptide]
